# Fewer inactive variants are shown than the library holds.
# B1: TPR 5TU (parent)
# chain: GGAUCUUCUCGAUCUAACAAAAAAGACAAAUCUGCCACAAAGCUUGAGAGCAUCUUCGGAUGCAGAGGCGGCAGCCUUCGGUGGCGCGAUAGCGCCAACGUUCUCAACUAUGACACGCAAAACGCGUGCUCCGUUGAAUGGAGUUUAUCAUG
# Variants of: B1
# Assay: polymerase ribozyme fitness, log enrichment relative to wild type (log ratio); higher = more active; in vitro selection for triplet polymerase activity
# How it was run: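 PCR was used to build mutant libraries for each subunit of a heterodimeric triplet polymerase ribozyme, which were then transcribed. A single in vitro selection round, in triplicate, used a frozen incubation at −7 °C and recovered extended constructs by gel excision, streptavidin beads and RT-PCR. Fitness is the logarithm of genotype enrichment relative to wild-type enrichment, averaged over replicates with inverse-variance weights. The logarithm is base 2, and after Illumina sequencing only genotypes with ≥10 input reads and ≥1 read per output were kept.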
row,Variant,polymerase ribozyme fitness (log ratio)
1,GGAUCUUCUCGAUCUAACAAAAAAGACAAAUCUGCCACAAAGCUUGAGAGCAUCUUCGGAUGCAGAGGCGGCAGCCUUCGGUGGCGCGAUAGUGCAAACGUUCUCAACUAUGACACGCAAAACGCGUGCUCCGUUGAAUGGAGUUUAUCAUG,-1.65
2,GGAUCUUCUCGAUCUAACAAAAAAGACAAAUCUGCCACAAAGCUUGAGAGCAUCUUCGGAAGCAGAGGAGGCAGCCUUCGGUGGAGCGAUAGCGCCAACGUUCUCAACUAUGACACGCAAAACGCGUGCUCCGUUGAAAGGAGUUUAUGAUG,≤ -4.2
3,GGAUCUUCUCGAUCUAACAAAAAAGACAAAUCUGCCACAAAGCUUGCGAGCAUCUUCGGAUGCAGAGGCGGCAGCCUUCGGUGGCACGAUAGCGCCAACGUUCUCAACUAUGACACGCAAAACGCGUGCUCCGUUGAAUGGAGUUUAUUAUG,-1.64
4,GGAUCUUCUCGAUCUAACAAAAAAGACAAAUCUGCCACACAGCUUGAGAGCAUCUUCGGAUGCAGAGGCGGCAGCCUUCGGUGGCACGAUAGCGCCAACGUUCUCAACUAUGACACGCAAAACGCGUGCUCCGUUGAAUGCAGUUUCUCAUG,≤ -4.2
5,GGAUCUUCUCGAUCUUACUAAAAAGACAAAUCUGCCACUAAGCUUGAGAGCAUCUUCGGAAGCAGAGGCGGCAGCCUUCGGUGGCGCGAUAGCGCCAACGUUCUCAACUAUGGCACGCAAAACGCGUACUCCGUUGAAUGCAGUUUAUCAUG,≤ -4.2
6,GGAUCUUCUCGAUCUAACAAAAUCGACAAAUCUGCCACAAAGCUUGAGAGUAACUUCGGAUGCAGAGGCGGCAGCCUUCGGUGGCGCGAUAGCGCCAUCGUUCUCAACUAUGACACGCAAAACGCGUGCUCCGUUGAAUGGAGUUUAUCAUG,≤ -4.2
7,GGAUCUUCUCGAUCUAACAAAAAAGACAAAUCUGCCACUAAGCUUGAGAGCAUCUUCGGAUGCAGAGGCGCCAGCCUUCGGUGACGCGAUAGCGCCAACGUUUUCAACUAUGACACGCAAAACGCGUGCUCCGUUGAAUGGAGUUUAUCAUG,≤ -4.2
8,GGAUCUUCUGUAUCUAACAAAAAAGACAAAUAUGCCACAAAGCUUGAGAGUAUCUUCGGAUGCAGAGGCGGCAGUCUUCGGUGGCGCGAUAGUGACAACGUUCUCAACUAUGACACGCAAAACGCGUGCUCCGUUGAAUGGAGUUUAUCAUG,-4.16
9,GGAUCUUCUCGAUCUAACUAAAAAGACAAAUCUGCCACAAAGCUUGAGAGGAUCUUCGCAUGCAGAGGCGGCAGGCUUCGGUGGCGCAAUUGCGCUAACGUUCUCAACUAUGACACGCAAAACGCGUGCUCCGUUGAAUGCAGUUUAUCAUG,≤ -4.2
10,GGCUCUUCUCGAUCUAACAAAAAAGACAAAUCUACCACAAAGCUUGAGAGCAUCUUCGGAUGCAGAGGCGGCAGCCUUCGGUGGCGCGAUAGCGCGAACGUUCUCAACUAUGACACGCAAAACGCGUGCUCCGUUGAAUGGAGUUUAUCAUG,-3.63
11,GGAUCUUCUCGAUCUAACAAAAAAGACAAAUCUGCCACAAAGCUUGAGAGCAUCUUCGGAUGCAGAGGCGGCAGCCUUCGGUGGCGCGAUAACGCCAACGUUCACCAAUAUGACACGCAAAACGCGUGCUCCGUUGAAUGGAGUUUAUCAUG,≤ -4.2
12,GGAUCUUCUCGAUCUAACAAAAAAGACAAAUCUGCCACUAAGCUUGAGAGCAUCUUCGGAUGCAGAGGCGGCAGCCUUCGGUGCCGCGAUAGCGCCAACGUUCUCAACUAUGACACGCAAAACGCGUGCUCCGUUGAAUGGAGUUUAUCAUG,-3.33
13,GGAUCUUCUCGAUCUAACAAAAAAGACAAAUCUGCCACAAAGCUUGAGAGCAUAUUCGGAUGCAGAGGAGGCAGCCUUCGGUGACGCAAUAGCGCCAACGUUCUCAACUAUGACACGCAAAACGCGUGCUCCGUUGAAUGGAGUUUAUCAUG,≤ -4.2
14,GGAUCUUCUCGAUCUAACAAAAAAGACAAAUCUGGCACAAAGCUUGAGAGCAUCUUCGGAUGCAGAGGAGGCAGCAUUCGGUGGCGCGAUAGCGCCAACGUUCUCAACUAUGACACGGAAAACGCGCGCUCCGUUGAAUGGAGUUUAUCAUG,≤ -4.2
15,GGAUCUUCUCGAUCUAACUAACAAGACAAAUCUGCCACAAAGCUUGAGAGCAUCGUCGGAUGCCGAGGCGGCGGCCUUCGGUGGCGCGAUCGCGCCAACGUUCUCAACUAUGACACGCAAAACGCGUGCUCCGUUGAAUGGAGAUUAUCAUG,≤ -4.2
16,GGAUCUUCUCGAUCUAACAAAAAUGACAAAUCUGCCACAAAGCUUGAGAGCAUCUUCGGAAGCAGAGGCGGCAGCCUUCGGUGGCGCGAUAGCGCCAACGUUCUCAACUAUGACACGCAAAACGCGUGCUCCGUUGAAUGGAGUUUAUCAUG,-1.72
17,GGAUCUUCUCGAUCUAACAAUAAAGACAAAUCUGCCACAAAGCUUGAGAGCAUCUUAGGAUGCAGAGGCGGCAGCUUUCGGUGGCGCGAUAGCGCCAACGUUCUCAACUAUGACAAGCAAAACGCGUGCUCCGUUGAAUGGAGUUUAUCAUG,0.702
18,GGAUCUUCUCGAUCUCACAAAAAAGACAAAUCUGCCACAAAGCUUGAGAGCAUCUUCGGAUGCAGAGGCGGCAGCCUUCGGUGGCGCGAUAGCGCCAACGUUCUCAACUAUGACACGCAAAACGCGUGCUCCGUUGAAUGGAGUUUAUCUUG,-0.0438
19,GGCUCUUUUCGAUCUAACAAAAAAGACAAAUCUGCCACAAAGCUUGAGAGCAUCUUCGGAGGCAGAGGCGCCAGCCUUCCGUGGCGCGAUAGAGCCAACGUUCUCAACUAUGACACGCAAAACGGGCGCUCCGUUGAAUGGAGUCUAUCAUU,≤ -4.2
